{
  "source": "patent US20230183336A1",
  "about": "(MODMAB THERAPEUTICS, published 2023)",
  "binders": {"B1": {"name": "LRP5-H5 (antibody, V domains shown)", "VH": "EVQLVESGGGLVQPGGSLRLSCAASGFNLSYSSIHWVRQAPGKGLEWVASISSSYGSTSYADSVKGRFTISADTSKNTAYLQMNSLRAEDTAVYYCARGYWAIDYWGQGTLVTVSS", "VL": "DIQMTQSPSSLSASVGDRVTITCRASQSVSSAVAWYQQKPGKAPKLLIYSASSLYSGVPSRFSGSRSGTDFTLTISSLQPEDFATYYCQQPVGHYGYPITFGQGTKVEIKR", "notes": "Fab-phage in the screen"}},
  "target": "T1, recombinant mouse LRP5-His chimera (mouse, UniProt Q91VN0 31-1383)",
  "T1 construct": "extracellular domain; also called ECD of mouse LRP5; not shown: His tag",
  "T1 sequence (looked up)": "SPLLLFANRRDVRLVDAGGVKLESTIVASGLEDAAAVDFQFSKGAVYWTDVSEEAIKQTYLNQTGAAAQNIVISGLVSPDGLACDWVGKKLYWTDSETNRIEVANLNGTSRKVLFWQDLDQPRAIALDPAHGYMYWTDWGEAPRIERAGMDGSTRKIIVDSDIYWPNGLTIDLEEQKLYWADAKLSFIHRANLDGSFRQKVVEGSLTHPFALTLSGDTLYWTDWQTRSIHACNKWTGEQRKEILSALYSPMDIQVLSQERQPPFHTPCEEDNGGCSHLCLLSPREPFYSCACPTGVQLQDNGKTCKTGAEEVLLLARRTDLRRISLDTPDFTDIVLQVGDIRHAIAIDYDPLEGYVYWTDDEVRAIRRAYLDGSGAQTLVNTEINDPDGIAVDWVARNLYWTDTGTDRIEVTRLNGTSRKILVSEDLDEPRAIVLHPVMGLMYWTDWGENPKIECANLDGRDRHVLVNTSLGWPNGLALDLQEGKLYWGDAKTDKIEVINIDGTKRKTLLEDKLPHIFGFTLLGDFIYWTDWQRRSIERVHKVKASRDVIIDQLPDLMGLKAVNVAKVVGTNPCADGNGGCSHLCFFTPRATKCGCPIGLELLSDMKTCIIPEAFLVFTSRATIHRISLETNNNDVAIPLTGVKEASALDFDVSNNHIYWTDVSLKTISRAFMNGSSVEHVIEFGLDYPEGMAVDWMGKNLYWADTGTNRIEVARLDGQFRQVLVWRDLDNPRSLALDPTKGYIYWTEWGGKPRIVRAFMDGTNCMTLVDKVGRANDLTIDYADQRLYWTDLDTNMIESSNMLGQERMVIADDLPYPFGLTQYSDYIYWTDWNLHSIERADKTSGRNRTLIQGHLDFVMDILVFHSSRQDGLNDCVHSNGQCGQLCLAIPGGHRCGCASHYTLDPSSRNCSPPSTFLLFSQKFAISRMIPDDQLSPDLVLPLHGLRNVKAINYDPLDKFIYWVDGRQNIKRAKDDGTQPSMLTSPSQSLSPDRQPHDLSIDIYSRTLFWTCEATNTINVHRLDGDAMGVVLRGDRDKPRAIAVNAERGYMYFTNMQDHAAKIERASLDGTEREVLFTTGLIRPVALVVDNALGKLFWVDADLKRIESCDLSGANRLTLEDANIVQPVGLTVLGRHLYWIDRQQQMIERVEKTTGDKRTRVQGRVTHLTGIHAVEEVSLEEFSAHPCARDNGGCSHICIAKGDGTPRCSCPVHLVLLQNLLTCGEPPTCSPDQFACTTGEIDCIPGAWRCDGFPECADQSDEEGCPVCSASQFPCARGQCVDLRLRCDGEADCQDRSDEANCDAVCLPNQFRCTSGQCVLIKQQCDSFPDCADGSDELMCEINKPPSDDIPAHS",
  "assay": "single-point ELISA, coated antigen, purified Fab or IgG1, anti-kappa-HRP",
  "data": [
    {"binder": "B1", "values": [
      {"measurement": "binding result", "result": "binds"}
    ]}
  ]
}
